The target in one data set is T1, FtsZ^D212N (untagged) (E. coli, UniProt P0A9A6 1-383, D212N).
T1 sequence: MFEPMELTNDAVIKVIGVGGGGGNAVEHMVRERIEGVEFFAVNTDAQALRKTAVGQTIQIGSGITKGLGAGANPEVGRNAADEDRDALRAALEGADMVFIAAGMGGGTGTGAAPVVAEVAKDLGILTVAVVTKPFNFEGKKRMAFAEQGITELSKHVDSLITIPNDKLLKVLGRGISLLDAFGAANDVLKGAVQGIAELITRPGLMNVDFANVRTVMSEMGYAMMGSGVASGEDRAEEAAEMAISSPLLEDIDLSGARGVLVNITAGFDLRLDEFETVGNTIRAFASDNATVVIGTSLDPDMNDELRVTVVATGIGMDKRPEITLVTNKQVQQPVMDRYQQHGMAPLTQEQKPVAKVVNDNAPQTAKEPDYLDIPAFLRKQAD
In words: pull-down.

Data set [1] concerns the target T2, FtsZ (wild-type, untagged) (E. coli, UniProt P0A9A6 1-383).
T2 sequence: T1 sequence with N212D
Put plainly: co-sedimentation.

Data set [2] deals with the molecule itself. In words: sedimentation of polymers.

Changes are numbered by the printed parent chain. Names and notes keep the numbering of the source.

B1: H-SUMO-ZapA (natural protein)
chain: MSAQPVDIQIFGRSLRVNCPPDQRDALNQAADDLNQRLQDLKERTRVTNTEQLVFIAALNISYELAQEKAKTRDYAASMEQRIRMLQQTIEQALLEQGRITEKTNQNFE
With B1, the binding result with FtsZ^D212N (untagged) is on record as “binds”.

B2: ZapA (untagged) (natural protein)
chain: B1 chain
In the case of B2, in data set [1], the binding result was “binds”.

B3: FtsZ^F2A (untagged) (natural protein)
chain: T1 sequence with F2A, N212D
As to B3, the binding result in data set [2] is listed as “binds”.
